Like-named read-outs stand apart in the source and are kept apart here.
Tests used:
[1] = biological target: FakA H282A, H284A (Staphylococcus aureus) (Staphylococcus aureus); experiment: mass photometry
[2] = biological target: FakA H282A, H284A (Staphylococcus aureus) (Staphylococcus aureus); experiment: mass photometry; remark: listed apart in the source
[3] = biological target: Fatty acid kinase FakA (Staphylococcus aureus), wild type (Staphylococcus aureus); experiment: SEC-SAXS
[4] = biological target: Fatty acid kinase FakA (Staphylococcus aureus), wild type (Staphylococcus aureus); experiment: mass photometry
[5] = biological target: His-tagged FakB2 (Staphylococcus aureus) (Staphylococcus aureus); experiment: BLI
[6] = biological target: Fatty acid kinase FakA (Staphylococcus aureus), wild type (Staphylococcus aureus); experiment: mass photometry; remark: listed apart in the source

Substance	percent of the protein in the dimer peak [1] [%]	percent of the protein in the dimer peak [2] [%]	stoichiometry N [3]	percent of the protein in the dimer peak [4] [%]	Kd [5] [nM]	percent of the protein in the dimer peak [6] [%]	stoichiometry N [6]
FakA H282A, H284A (Staphylococcus aureus) (enzyme)	24	63	–	–	–	–	–
Fatty acid kinase FakA (Staphylococcus aureus), wild type (enzyme)	–	–	2	57	4.34	77	2

Source: article doi:10.1101/2024.03.19.585040
